Experimental data: patent publication US20220323445A1, “REDUCING IMMUNOGENICITY TO PEGLOTICASE” (Horizon Therapeutics Ireland DAC, priority 2020, published 2022)

System: serum uric acid (sUA)
Test: Serum uric acid (sUA) levels and sUA responders, open-label study of pegloticase with MTX (NCT03635957)
Format: in vivo, human
Experimental: The primary objective is to estimate the response rate during Month 6 (Weeks 20, 22, and 24), as measured by the sustained normalization of serum uric acid (SUA) to <6 mg/dL for at least 80% of the time during Month 6 in subjects receiving KXX with MTX.
The primary efficacy outcome endpoint is the sustained normalization of SUA to <6 mg/dL for at least 80% of the time during month 6 (weeks 20, 22, and 24) in subjects receiving KXX with MTX. This is slightly below the urate solubility threshold and this threshold has been the accepted standard for nearly all modern gout trials. Participants who achieve this endpoint were classified as “responders.” Serum uric acid (SUA) responders may also be defined as participants achieving and maintaining SUA <6 mg/dL for at least 80% of the time during Month 6 (Weeks 20, 22, and 24).
Blood samples may be collected prior to each pegloticase infusion for measurement of SUA levels using the Beckman Coulter AU System Uric Acid procedure. Participants were declared “non-responders” if there were SUA measures >6 mg/dL at 2 consecutive study visits beginning with the week 2 visit. […] If the SUA goal is not maintained before or at the 12-week mark, it was assumed that the participant had developed clinically relevant anti-pegloticase antibody and they received no further infusions. This assumption and subsequent discontinuation of pegloticase was consistent with the protocol of large phase III randomized controlled trials and the product label. A formal stopping rule was 2 occasions of SUA levels of greater than 6 mg/dL.
Clinical Chemistry—Blood samples were collected prior to each pegloticase infusion for measurement of SUA levels (primary efficacy parameter) using the Beckman Coulter AU System Uric Acid procedure. In this procedure uric acid is converted to hydrogen peroxide. Hydrogen peroxide reacts with reagent to produce a chromophore which is read bichromatically at 660/800 nm. The amount of dye formed is proportional to the uric acid concentration in the sample.
Serum samples for measurement of SUA levels were collected at the Screening Visit, the Week −4 Visit (prior to the first dose of MTX), and the Week −2 Visit during the MTX Run-in Period; within 48 hours prior to each pegloticase infusion and after the end of each pegloticase infusion prior to discharge from the site during the Pegloticase+IMM Period; at the non-infusion Week 52/End of Study/Early Termination Visits and at the Post Treatment 3 and 6 Month Follow-up Visits. Additional serum samples for SUA levels were collected at optional non-infusion (Frequent Sampling) Visits at Weeks 1 and 7. […] Subjects with SUA level >6 mg/dL at 2 consecutive visits beginning at Week 2 visit discontinued treatment, completed the End of Pegloticase Infusion Visit procedures within 2 weeks and continued the subject visits according to the protocol (without treatment).
Efficacy analyses were performed using the modified intention-to-treat (mITT) population, defined as all enrolled subjects who received ≥1 dose of pegloticase. The proportion of Month 6 responders was summarized, along with a 95% confidence interval for the proportion. The proportion of Month 3 and overall (Months 3 and 6 combined) responders was analyzed similarly.
A subject was declared a non-responder if the subject had SUA level >6 mg/dL at 2 consecutive study visits beginning with the Week 2 Visit. In addition, a subject who withdraws from study treatment for any reason after the first dose of pegloticase in the KXX+MTX Period and prior to Month 6 (for the primary endpoint) or Month 3 (for the secondary endpoint) was considered a non-responder if SUA values were not collected at the planned time points.
Patients were administered oral MTX (15 mg/week) and folate (1 mg/day) 4 weeks prior to the first pegloticase infusion (Day 1) and throughout the pegloticase treatment period. […]

[1] = Week 24 - Pre-Infusion, mITT, n=11
[2] = Week 26 - Pre-Infusion, Month 6 sUA Responders
[3] = Week 26 - Pre-Infusion, mITT, n=8
[4] = Week 28 - Pre-Infusion, Month 6 sUA Responders
[5] = Week 28 - Pre-Infusion, mITT, n=8
[6] = Week 30 - Pre-Infusion, Month 6 sUA Responders
[7] = Week 30 - Pre-Infusion, mITT, n=8
[8] = Week 32 - Post-Infusion, Month 6 sUA Responders
[9] = Week 32 - Post-Infusion, mITT, n=8
[10] = Week 32 - Pre-Infusion, Month 6 sUA Responders
[11] = Week 32 - Pre-Infusion, mITT, n=10
[12] = Week 34 - Post-Infusion, Month 6 sUA Responders
[13] = Week 34 - Post-Infusion, mITT, n=8

B1: pegloticase (protein)
chain: TYKKNDEVEFVRTGYGKDMIKVLHIQRDGKYHSIKEVATTVQLTLSSKKDYLHGDNSDVIPTDTIKNTVNVLAKFKGIKSIETFAVTICEHFLSSFKHVIRAQVYVEEVPWKRFEKNGVKHVHAFIYTPTGTHFCEVEQIRNGPPVIHSGIKDLKVLKTTQSGFEGFIKDQFTTLPEVKDRCFATQVYCKWRYHQGRDVDFEATWDTVRSIVLQKFAGPYDKGEYSPSVQKTLYDIQVLTLGQVPEIEDMEISLPNIHYLNIDMSKMGLINKEEVLLPLDNPYGKITGTVKRKLSSRL
modifications: monomethoxy PEG conjugated; Krystexxa Sequence
notes: covalent conjugate of uricase produced by a genetically modified strain of Escherichia coli and monomethoxypoly (ethylene glycol)
- sUA < 6 mg/dL, n (%) [1]: 11 (100%)
- sUA Change from Baseline, Mean (SD) [1]: −8.97 (2.810) mg/dL
- sUA Change from Baseline, Median [1]: -8.80 mg/dL
- sUA Observed, Mean (SD) [1]: 0.30 (0.000) mg/dL
- sUA Observed, Median [1]: 0.30 mg/dL
- sUA < 6 mg/dL, % [2]: (100%)
- sUA Change from Baseline, Mean [2]: -9.11 mg/dL
- sUA Change from Baseline, Median [2]: -8.95 mg/dL
- sUA Observed, Mean [2]: 0.30 mg/dL
- sUA Observed, Median [2]: 0.30 mg/dL
- sUA < 6 mg/dL, n (%) [3]: 8 (100%)
- sUA Change from Baseline, Mean (SD) [3]: −9.11 (3.293) mg/dL
- sUA Change from Baseline, Median [3]: -8.95 mg/dL
- sUA Observed, Mean (SD) [3]: 0.30 (0.000) mg/dL
- sUA Observed, Median [3]: 0.30 mg/dL
- sUA < 6 mg/dL, % [4]: (100%)
- sUA Change from Baseline, Mean [4]: -9.11 mg/dL
- sUA Change from Baseline, Median [4]: -8.95 mg/dL
- sUA Observed, Mean [4]: 0.30 mg/dL
- sUA Observed, Median [4]: 0.30 mg/dL
- sUA < 6 mg/dL, n (%) [5]: 8 (100%)
- sUA Change from Baseline, Mean (SD) [5]: −9.11 (3.293) mg/dL
- sUA Change from Baseline, Median [5]: -8.95 mg/dL
- sUA Observed, Mean (SD) [5]: 0.30 (0.000) mg/dL
- sUA Observed, Median [5]: 0.30 mg/dL
- sUA < 6 mg/dL, % [6]: (100%)
- sUA Change from Baseline, Mean [6]: -9.11 mg/dL
- sUA Change from Baseline, Median [6]: -8.95 mg/dL
- sUA Observed, Mean [6]: 0.30 mg/dL
- sUA Observed, Median [6]: 0.30 mg/dL
- sUA < 6 mg/dL, n (%) [7]: 8 (100%)
- sUA Change from Baseline, Mean (SD) [7]: −9.11 (3.293) mg/dL
- sUA Change from Baseline, Median [7]: -8.95 mg/dL
- sUA Observed, Mean (SD) [7]: 0.30 (0.000) mg/dL
- sUA Observed, Median [7]: 0.30 mg/dL
- sUA < 6 mg/dL, % [8]: (100%)
- sUA Change from Baseline, Mean [8]: -9.11 mg/dL
- sUA Change from Baseline, Median [8]: -8.95 mg/dL
- sUA Observed, Mean [8]: 0.30 mg/dL
- sUA Observed, Median [8]: 0.30 mg/dL
- sUA < 6 mg/dL, n (%) [9]: 8 (100%)
- sUA Change from Baseline, Mean (SD) [9]: −9.11 (3.293) mg/dL
- sUA Change from Baseline, Median [9]: -8.95 mg/dL
- sUA Observed, Mean (SD) [9]: 0.30 (0.000) mg/dL
- sUA Observed, Median [9]: 0.30 mg/dL
- sUA < 6 mg/dL, % [10]: (100%)
- sUA Change from Baseline, Mean [10]: -8.99 mg/dL
- sUA Change from Baseline, Median [10]: -8.95 mg/dL
- sUA Observed, Mean [10]: 0.30 mg/dL
- sUA Observed, Median [10]: 0.30 mg/dL
- sUA < 6 mg/dL, n (%) [11]: 10 (100%)
- sUA Change from Baseline, Mean (SD) [11]: −8.99 (2.961) mg/dL
- sUA Change from Baseline, Median [11]: -8.95 mg/dL
- sUA Observed, Mean (SD) [11]: 0.30 (0.000) mg/dL
- sUA Observed, Median [11]: 0.30 mg/dL
- sUA < 6 mg/dL, % [12]: (100%)
- sUA Change from Baseline, Mean [12]: -9.11 mg/dL
- sUA Change from Baseline, Median [12]: -8.95 mg/dL
- sUA Observed, Mean [12]: 0.30 mg/dL
- sUA Observed, Median [12]: 0.30 mg/dL
- sUA < 6 mg/dL, n (%) [13]: 8 (100%)
- sUA Change from Baseline, Mean (SD) [13]: −9.11 (3.293) mg/dL
- sUA Change from Baseline, Median [13]: -8.95 mg/dL
- sUA Observed, Mean (SD) [13]: 0.30 (0.000) mg/dL
- sUA Observed, Median [13]: 0.30 mg/dL
